From US7074595B2, “General means of labeling protein by using wheat embryo cell-free protein synthesis system” (CellFree Sciences Co., Ltd., priority 2000, dated 2006) come the findings set out here.

What all share (assay type): biochemical
Substrate in series [1]: NC(=O)C1=CN([C@@H]2O[C@H](COP(=O)(O)OP(=O)(O)OC[C@H]3O[C@@H](n4cnc5c(N)ncnc54)[C@H](OP(=O)(O)O)[C@@H]3O)[C@@H](O)[C@H]2O)C=CC1
In words: enzymatic properties of DHFR (Table 1): Michaelis constant and maximum velocity, Met-DHFR. To be noted: other: Met-DHFR. Here is the method:
(§1) Purification of GFP and measurement of its activity by analysis of fluorescence spectrum using a fluorospectrophotometer were carried out in accordance with a method by Deschamps, et al. [Deschamps, J. R. et al., (1995) Protein Expression and Purification, 6, 555–558]. In the measurement of fluorescence spectrum, a fluorophotometer of type RF-5000 by Shimadzu was used. DHFR activity was measured by a method of Stanley, et al. [Methods. Enzymol. 18, 195–199 (1971)].
(§2) Then enzymatic properties of the selenomethionine-containing proteins purified as such were investigated biochemically. Fluorescence emission spectrum of a certain concentration of the purified GFP preparation shown in FIG. 2 excited at the wavelength of 395 nm was measured within a range of 410 nm to 600 nm and the result is shown in FIG. 3. As will be apparent from FIG. 3, there is no difference between the fluorescence emission spectra of GFP [(A) in FIG. 3] and selenomethionine GFP [(B) in FIG. 3]. Thus, the conclusion is that the change in GFP activity by substituting methionine residue with selenomethionine is not higher than the usual measurement sensitivity. […]

Substrate in series [2]: NC(=O)C1=CN([C@@H]2O[C@H](COP(=O)(O)OP(=O)(O)OC[C@H]3O[C@@H](n4cnc5c(N)ncnc54)[C@H](OP(=O)(O)O)[C@@H]3O)[C@@H](O)[C@H]2O)C=CC1
In words: enzymatic properties of DHFR (Table 2): Michaelis constant and maximum velocity, Natural-Type DHFR. Particulars: other: Natural-Type DHFR. Here is the method:
as §1
Then enzymatic properties of the purified heavy hydrogen-labeled DHFR were biochemically investigated by the same manner as in Example 1. As will be apparent from Table 2, both Vmax and Michaelis constant (Km) to NADPH which are parameters for enzymatic chemical property of natural-type DHFR and heavy hydrogen-labeled DHFR show no difference between both enzymes. Thus, it became clear that DHFR comprising heavy hydrogen-labeled amino acids maintained nearly the same enzymatic activity as the natural-type DHFR.

Substrate in series [3]: NC(=O)C1=CN([C@@H]2O[C@H](COP(=O)(O)OP(=O)(O)OC[C@H]3O[C@@H](n4cnc5c(N)ncnc54)[C@H](OP(=O)(O)O)[C@@H]3O)[C@@H](O)[C@H]2O)C=CC1
In words: enzymatic properties of DHFR (Table 1): Michaelis constant and maximum velocity, SeMet-DHFR. To be noted: other: SeMet-DHFR. Here is the method:
as §1, §2

Substrate in series [4]: NC(=O)C1=CN([C@@H]2O[C@H](COP(=O)(O)OP(=O)(O)OC[C@H]3O[C@@H](n4cnc5c(N)ncnc54)[C@H](OP(=O)(O)O)[C@@H]3O)[C@@H](O)[C@H]2O)C=CC1
In words: enzymatic properties of DHFR (Table 2): Michaelis constant and maximum velocity, Heavy Hydrogen-Labeled DHFR. Particulars: other: Heavy Hydrogen-Labeled DHFR. Here is the method: as §1
With regard to the wheat embryo, that being contaminated with substantially no endosperm component prepared by the method mentioned in Example 1 was used. Preparation of an extract from wheat embryo was carried out by the exactly same method as Example 1 except that the solution for extraction and the solution used for gel filtration contained 20 kinds of heavy hydrogen-labeled L-amino acids instead of 20 kinds of selenomethionine-containing L-amino acids. Concentration of the prepared extract was adjusted to 170˜250 A260 nm (A260/A280=1.5).
Although the composition of the protein synthesis reaction solution is as same as that described in Example 1, it contains 20 kinds of heavy hydrogen-labeled L-amino acids instead of 20 kinds of selenomethionine-containing L-amino acids.
Then enzymatic properties of the purified heavy hydrogen-labeled DHFR were biochemically investigated by the same manner as in Example 1. […]

B1: dihydrofolate reductase (DHFR), natural-type methionine-containing (Met-DHFR) (Escherichia coli K-12) (protein)
chain: MISLIAALAVDRVIGMENAMPWNLPADLAWFKRNTLNKPVIMGRHTWESIGRPLPGRKNIILSSQPGTDDRVTWVKSVDEAIAACGDVPEIMVIGGGRVYEQFLPKAQKLYLTHIDAEVEGDTHFPDYEPDDWESVFSEFHDADAQNSHSYCFEILERR
notes: made in house; host or cells: wheat embryo extract cell-free protein synthesis (dialysis type)
For B1, the Michaelis-Menten constant (Km) in series [1] came to 11.2 µM.

B2: dihydrofolate reductase (DHFR), Natural-Type DHFR (Escherichia coli K-12) (protein)
chain: MISLIAALAVDRVIGMENAMPWNLPADLAWFKRNTLNKPVIMGRHTWESIGRPLPGRKNIILSSQPGTDDRVTWVKSVDEAIAACGDVPEIMVIGGGRVYEQFLPKAQKLYLTHIDAEVEGDTHFPDYEPDDWESVFSEFHDADAQNSHSYCFEILERR
notes: as for B1
With B2, the Km in series [2] was found to be 13.2 µM.

B3: dihydrofolate reductase (DHFR), selenomethionine-containing (SeMet-DHFR) (Escherichia coli K-12) (protein)
chain: MISLIAALAVDRVIGMENAMPWNLPADLAWFKRNTLNKPVIMGRHTWESIGRPLPGRKNIILSSQPGTDDRVTWVKSVDEAIAACGDVPEIMVIGGGRVYEQFLPKAQKLYLTHIDAEVEGDTHFPDYEPDDWESVFSEFHDADAQNSHSYCFEILERR
notes: as for B1
Regarding B3, the Michaelis-Menten constant (Km) in series [3] was 10.2 µM.

B4: dihydrofolate reductase (DHFR), Heavy Hydrogen-Labeled DHFR (20 kinds of heavy hydrogen-labeled L-amino acids) (Escherichia coli K-12) (protein)
chain: MISLIAALAVDRVIGMENAMPWNLPADLAWFKRNTLNKPVIMGRHTWESIGRPLPGRKNIILSSQPGTDDRVTWVKSVDEAIAACGDVPEIMVIGGGRVYEQFLPKAQKLYLTHIDAEVEGDTHFPDYEPDDWESVFSEFHDADAQNSHSYCFEILERR
notes: as for B1
For B4, the Km in series [4] was found to be 14.7 µM.
